Measurements taken from PMC12312565, “Crystal structures of Escherichia coli glucokinase and insights into phosphate binding” (Acta Crystallographica Section F: Structural Biology …, 2025).

Target: the molecule itself
Assay: crystal structure; phosphate-bound ecGLK, space group P4_(3)2_(1)2; crystals grown in 100 mM Tris-HCl pH 8.5, 200 mM lithium sulfate, 20%(w/v) PEG 5000 MME; data collected at room temperature; molecular replacement with PDB 1q18

B1: Escherichia coli glucokinase (enzyme, E. coli)
chain: MTKYALVGDVGGTNARLALCDIASGEISQAKTYSGLDYPSLEAVIRVYLEEHKVEVKDGCIAIACPITGDWVAMTNHTWAFSIAEMKKNLGFSHLEIINDFTAVSMAIPMLKKEHLIQFGGAEPVEGKPIAVYGAGTGLGVAHLVHVDKRWVSLPGEGGHVDFAPNSEEEAIILEILRAEIGHVSAERVLSGPGLVNLYRAIVKADNRLPENLKPKDITERALADSCTDCRRALSLFCVIMGRFGGNLALNLGTFGGVFIAGGIVPRFLEFFKASGFRAAFEDKGRFKEYVHDIPVYLIVHDNPGLLGSGAHLRQTLGHIL
notes: Escherichia coli glucokinase (glk gene cloned into pCDF-1b); Expression and purification follow Fatema et al., 2024; also called GLK; ecGLK; source: E. coli BL21 (DE3), purified (Ni-NTA, PD10 desalting)
Which “stoichiometry N” value does the source give for B1 here?
The value was 2.
